Molecular target: T1, recombinant human PD-1 His-tag protein (R&D Systems) (human, UniProt Q15116 25-167)
T1 construct: Bought reagent; Used for the ELISA (coated) and for SPR (analyte); also called PD-1 protein; human PD-1 protein; not shown: His-tag
Assay: binding kinetics (method not described at the table; presumably SPR as in Example 8)

T1 sequence (Q15116 25-167 limits assumed): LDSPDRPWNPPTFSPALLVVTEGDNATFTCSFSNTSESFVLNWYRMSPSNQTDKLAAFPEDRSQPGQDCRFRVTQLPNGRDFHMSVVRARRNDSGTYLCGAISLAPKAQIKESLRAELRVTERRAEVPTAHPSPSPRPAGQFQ

Binder | Kd | koff | kon
Modified Seq11 (modified zCUSB0136.8 antibody) (antibody, V domains shown) VH: QVQLQESGPGLVKPSETLSLTCTVSGFSLTTYDIIWIRQSPGKGLEWLGVIWTGGDTTYNSAFMSRLTISKDTSKNQISLKMSSLTAADTAVYYCARDWAYWGQGTLVTVSS VL: DIVLTQSPDSLAVSLGERATISCRASESVDNYGNSFIQWYQQKPGQPPKLLIYFASYLQSGVPDRFSGSGSGTDFTLTISSVQAEDVATYYCHQNNEDPFTFGGGTKLEIK | 20.6 pM | 7.57e-05 s⁻¹ | 3.67e+06 M⁻¹ s⁻¹
Modified Seq4 (modified zCUSB0136.8 antibody) (antibody, V domains shown) VH: QVQLQESGPGLVKPSETLSLTCTVSGFSLTVYDIIWIRQSPGKGLEWLGVIWTGGDTTYNSAFMSRLTISKDTSKNQISLKMSSLTAADTAVYYCARDWAYWGQGTLVTVSS VL: DIVLTQSPDSLAVSLGERATISCRASESVDNYGNSFIQWYQQKPGQPPKLLIYFASYLQSGVPDRFSGSGSGTDFTLTISSVQAEDVATYYCHQNNEDPFTFGGGTKLEIK | 9.44 pM | 3.92e-05 s⁻¹ | 4.15e+06 M⁻¹ s⁻¹
Modified Seq6 (modified zCUSB0136.8 antibody) (antibody, V domains shown) VH: QVQLQESGPGLVKPSETLSLTCTVSGFSLTTYDIIWIRQSPGKGLEWLGVIWTGGDTTYNSAFMSRLTISKDTSKNQISLKMSSLTAADTAVYYCARDWIYWGQGTLVTVSS VL: DIVLTQSPDSLAVSLGERATISCRASESVDNYGNSFIQWYQQKPGQPPKLLIYFASYLQSGVPDRFSGSGSGTDFTLTISSVQAEDVATYYCHQNNEDPFTFGGGTKLEIK | 13.6 pM | 5.45e-05 s⁻¹ | 4e+06 M⁻¹ s⁻¹
Modified Seq3 (modified zCUSB0136.8 antibody) (antibody, V domains shown) VH: QVQLQESGPGLVKPSETLSLTCTVSGFSLTTYDIIWIRQSPGKGLEWLGVIWTGGDTTYNSAFMSRLTISKDTSKNQISLKMSSLTAADTAVYYCARDWIYWGQGTLVTVSS VL: DIVLTQSPDSLAVSLGERATISCRASESVDNWGNSFIQWYQQKPGQPPKLLIYFASYLQSGVPDRFSGSGSGTDFTLTISSVQAEDVATYYCHQNNEDPFTFGGGTKLEIK | 9.31 pM | 5.28e-05 s⁻¹ | 5.67e+06 M⁻¹ s⁻¹
Modified Seq5 (modified zCUSB0136.8 antibody) (antibody, V domains shown) VH: QVQLQESGPGLVKPSETLSLTCTVSGFSLTVYDIIWIRQSPGKGLEWLGVIWTGGDTTYNSAFMSRLTISKDTSKNQISLKMSSLTAADTAVYYCARDWMYWGQGTLVTVSS VL: DIVLTQSPDSLAVSLGERATISCRASESVDNYGNSFIQWYQQKPGQPPKLLIYFASYLQSGVPDRFSGSGSGTDFTLTISSVQAEDVATYYCHQNNEDPFTFGGGTKLEIK | 10.8 pM | 4.36e-05 s⁻¹ | 4.06e+06 M⁻¹ s⁻¹
Modified Seq1 (modified zCUSB0136.8 antibody) (antibody, V domains shown) VH: QVQLQESGPGLVKPSETLSLTCTVSGFSLTTYDIIWIRQSPGKGLEWLGVIWTGGDTWYNSAFMSRLTISKDTSKNQISLKMSSLTAADTAVYYCARDWAYWGQGTLVTVSS VL: DIVLTQSPDSLAVSLGERATISCRASESVDNWGNSFIQWYQQKPGQPPKLLIYFASYLQSGVPDRFSGSGSGTDFTLTISSVQAEDVATYYCHQNNEDPFTFGGGTKLEIK | 5.39 pM | 2.81e-05 s⁻¹ | 5.21e+06 M⁻¹ s⁻¹
Modified Seq2 (modified zCUSB0136.8 antibody) (antibody, V domains shown) VH: QVQLQESGPGLVKPSETLSLTCTVSGFSLTVYDIIWIRQSPGKGLEWLGVIWTGGDTTYNSAFMSRLTISKDTSKNQISLKMSSLTAADTAVYYCARDWIYWGQGTLVTVSS VL: DIVLTQSPDSLAVSLGERATISCRASESVDNYGNSFIQWYQQKPGQPPKLLIYFASYLQSGVPDRFSGSGSGTDFTLTISSVQAEDVATYYCHQNNEDPFTFGGGTKLEIK | 5.71 pM | 2.53e-05 s⁻¹ | 4.44e+06 M⁻¹ s⁻¹

More lines, now with the values ahead:

Kd | koff | kon | Binder
24.6 pM | 6.3e-05 s⁻¹ | 2.56e+06 M⁻¹ s⁻¹ | Modified Seq15 (modified zCUSB0136.8 antibody) (antibody, V domains shown) VH: QVQLQESGPGLVKPSETLSLTCTVSGFSLTVYDIIWIRQSPGKGLEWLGVIWTGGDTTYNSAFMSRLTISKDTSKNQISLKMSSLTAADTAVYYCARDWAYWGQGTLVTVSS VL: DIVLTQSPDSLAVSLGERATISCRASESVDNWGNSFIQWYQQKPGQPPKLLIYFASNLQSGVPDRFSGSGSGTDFTLTISSVQAEDVATYYCHQNNEDPFTFGGGTKLEIK
15.8 pM | 5.98e-05 s⁻¹ | 3.78e+06 M⁻¹ s⁻¹ | Modified Seq9 (modified zCUSB0136.8 antibody) (antibody, V domains shown) VH: QVQLQESGPGLVKPSETLSLTCTVSGFSLTTYDIIWIRQSPGKGLEWLGVIWTGGDTNYNSAFMSRLTISKDTSKNQISLKMSSLTAADTAVYYCARDWAYWGQGTLVTVSS VL: DIVLTQSPDSLAVSLGERATISCRASESVDNYGNSFIQWYQQKPGQPPKLLIYFASYLQSGVPDRFSGSGSGTDFTLTISSVQAEDVATYYCHQNNEDPFTFGGGTKLEIK
22.5 pM | 6.81e-05 s⁻¹ | 3.03e+06 M⁻¹ s⁻¹ | Modified Seq12 (modified zCUSB0136.8 antibody) (antibody, V domains shown) VH: QVQLQESGPGLVKPSETLSLTCTVSGFSLTVYDIIWIRQSPGKGLEWLGVIWTGGDTTYNSAFMSRLTISKDTSKNQISLKMSSLTAADTAVYYCARDWIYWGQGTLVTVSS VL: DIVLTQSPDSLAVSLGERATISCRASESVDNWGNSFIQWYQQKPGQPPKLLIYFASHLQSGVPDRFSGSGSGTDFTLTISSVQAEDVATYYCHQNNEDPFTFGGGTKLEIK
14.7 pM | 6.09e-05 s⁻¹ | 4.13e+06 M⁻¹ s⁻¹ | Modified Seq8 (modified zCUSB0136.8 antibody) (antibody, V domains shown) VH: QVQLQESGPGLVKPSETLSLTCTVSGFSLTTYDIIWIRQSPGKGLEWLGVIWTGGDTWYNSAFMSRLTISKDTSKNQISLKMSSLTAADTAVYYCARDWIYWGQGTLVTVSS VL: DIVLTQSPDSLAVSLGERATISCRASESVDNYGNSFIQWYQQKPGQPPKLLIYFASYLQSGVPDRFSGSGSGTDFTLTISSVQAEDVATYYCHQNNEDPFTFGGGTKLEIK
14.2 pM | 5.48e-05 s⁻¹ | 3.84e+06 M⁻¹ s⁻¹ | Modified Seq7 (modified zCUSB0136.8 antibody) (antibody, V domains shown) VH: QVQLQESGPGLVKPSETLSLTCTVSGFSLTTYDIIWIRQSPGKGLEWLGVIWTGGDTTYNSAFMSRLTISKDTSKNQISLKMSSLTAADTAVYYCARDWMYWGQGTLVTVSS VL: DIVLTQSPDSLAVSLGERATISCRASESVDNYGNSFIQWYQQKPGQPPKLLIYFASYLQSGVPDRFSGSGSGTDFTLTISSVQAEDVATYYCHQNNEDPFTFGGGTKLEIK
17.4 pM | 6.74e-05 s⁻¹ | 3.87e+06 M⁻¹ s⁻¹ | Modified Seq10 (modified zCUSB0136.8 antibody) (antibody, V domains shown) VH: QVQLQESGPGLVKPSETLSLTCTVSGFSLTTYDIIWIRQSPGKGLEWLGVIWTGGDTWYNSAFMSRLTISKDTSKNQISLKMSSLTAADTAVYYCARDWMYWGQGTLVTVSS VL: DIVLTQSPDSLAVSLGERATISCRASESVDNWGNSFIQWYQQKPGQPPKLLIYFASHLQSGVPDRFSGSGSGTDFTLTISSVQAEDVATYYCHQNNEDPFTFGGGTKLEIK
24.4 pM | 6.5e-05 s⁻¹ | 2.67e+06 M⁻¹ s⁻¹ | Modified Seq14 (modified zCUSB0136.8 antibody) (antibody, V domains shown) VH: QVQLQESGPGLVKPSETLSLTCTVSGFSLTTYDIIWIRQSPGKGLEWLGVIWTGGDTTYNSAFMSRLTISKDTSKNQISLKMSSLTAADTAVYYCARDWIYWGQGTLVTVSS VL: DIVLTQSPDSLAVSLGERATISCRASESVDNWGNSFIQWYQQKPGQPPKLLIYFASNLQSGVPDRFSGSGSGTDFTLTISSVQAEDVATYYCHQNNEDPFTFGGGTKLEIK

From US20260098092A1 (CHULALONGKORN UNIVERSITY, published 2026)
